Reference: patent US20080227711A1 (LABORATOIRES SERONO, published 2008)

Columns and labels:
murine CXCL2/MIP-2 [1] = target: T1, murine CXCL2/MIP-2 (murine, UniProt P10889 28-100); assay: SPR (Biacore 3000), Evasin-3-6His immobilized on CM4 chip, Kd=kd/ka
T1 sequence: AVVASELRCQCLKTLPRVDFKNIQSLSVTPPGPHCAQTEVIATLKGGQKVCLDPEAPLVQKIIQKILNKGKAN

murine CXCL1/KC [2] = target: T2, murine CXCL1/KC (murine, UniProt P12850 25-96); assay: as above
T2 sequence: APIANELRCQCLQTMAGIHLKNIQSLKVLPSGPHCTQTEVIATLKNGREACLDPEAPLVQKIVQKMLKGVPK

CXCL1/Gro-alpha [3] = target: T3, CXCL1/Gro-alpha (UniProt P09341 35-107); assay: as above
T3 construct: also called Gro-α; 125I-CXCL1/Gro-alpha
T3 sequence: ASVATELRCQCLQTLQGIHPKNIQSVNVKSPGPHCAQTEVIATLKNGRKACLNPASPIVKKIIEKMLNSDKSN

CXCL8/IL-8 [4] = target: T4, CXCL8/IL-8 (UniProt P10145 28-99, limits assumed); assay: as above
T4 construct: also called 125I-CXCL8/IL-8; 125I-IL-8
T4 sequence (looked up): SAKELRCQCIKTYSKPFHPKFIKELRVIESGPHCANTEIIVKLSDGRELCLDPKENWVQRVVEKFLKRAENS

CCL2/MCP-1 [5] = target: T5, CCL2/MCP-1 (UniProt P13500 24-99); assay: BS3 cross-linking of 125I-labelled protein to Evasin-3-6His, SDS-PAGE autoradiography (FIG. 7)
T5 construct: also called 125I-MCP-1

CTACK/CCL27 = target: T6, CTACK/CCL27 (UniProt Q9Y4X3 25-112); assay: as above
T6 construct: also called 125I-CCL27/CTACK
T6 sequence: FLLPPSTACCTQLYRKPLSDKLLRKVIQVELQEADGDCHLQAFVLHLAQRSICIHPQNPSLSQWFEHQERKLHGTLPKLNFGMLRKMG

IL-1α = target: T7, IL-1α (UniProt P01583 113-271); assay: as above
T7 construct: also called 125I-IL-1
T7 sequence: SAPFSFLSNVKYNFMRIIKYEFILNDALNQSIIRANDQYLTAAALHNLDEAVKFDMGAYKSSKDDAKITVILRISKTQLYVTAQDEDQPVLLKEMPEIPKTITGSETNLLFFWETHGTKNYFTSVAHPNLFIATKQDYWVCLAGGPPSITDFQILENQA

CXCL10/IP-10 = target: T8, CXCL10/IP-10 (UniProt P02778 22-98); assay: as above
T8 construct: also called 125I-CXCL10/IP-10
T8 sequence: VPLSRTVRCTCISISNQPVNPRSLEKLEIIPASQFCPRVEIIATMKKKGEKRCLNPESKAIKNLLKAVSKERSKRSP

IL-2 = target: T9, IL-2 (UniProt P60568 21-153); assay: as above
T9 construct: also called 125I-IL-2

CXCL1/Gro-alpha [6] = target: T3, CXCL1/Gro-alpha; assay: cell-based or functional assay
CXCL8/IL-8 [7] = target: T4, CXCL8/IL-8; assay: cell-based or functional assay
CXCL12/SDF-1-alpha [8] = target: T10, CXCL12/SDF-1-alpha (UniProt P48061 22-89); assay: SPR (Biacore 3000), Evasin-3-6His immobilized on CM4 chip, chemokine injected
T10 construct: also called SDF-1α

CCL11/eotaxin [9] = target: T11, CCL11/eotaxin (UniProt P51671 24-97); assay: as above
T11 construct: also called 125I-eotaxin

CX3CL1/Fractalkine [10] = target: T12, CX3CL1/Fractalkine (UniProt P78423 25-100); assay: as above
T12 sequence: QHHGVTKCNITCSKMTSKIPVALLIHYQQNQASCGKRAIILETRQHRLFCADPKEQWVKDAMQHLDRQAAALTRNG

murine CXCL2/MIP-2 [11] = target: T1, murine CXCL2/MIP-2; assay: SPR (Biacore 3000), Evasin-3-6His immobilized on CM4 chip, chemokine injected, Langmuir global fit
murine CXCL1/KC [12] = target: T2, murine CXCL1/KC; assay: as above
CXCL1/Gro-alpha [13] = target: T3, CXCL1/Gro-alpha; assay: as above
CXCL8/IL-8 [14] = target: T4, CXCL8/IL-8; assay: as above
CXCL8/IL-8 [15] = target: T4, CXCL8/IL-8; assay: equilibrium competition receptor binding assay: inhibition of 0.1 nM 125I-IL-8 binding to CHO/CXCR1 cells
murine CXCL2/MIP-2 [16] = target: T1, murine CXCL2/MIP-2; assay: SPR (Biacore 3000), Evasin-3 from E. coli immobilized on CM4 chip, chemokine injected, Langmuir global fit
murine CXCL1/KC [17] = target: T2, murine CXCL1/KC; assay: as above
CXCL1/Gro-alpha [18] = target: T3, CXCL1/Gro-alpha; assay: as above
CXCL8/IL-8 [19] = target: T4, CXCL8/IL-8; assay: as above
murine CXCL2/MIP-2 [20] = target: T1, murine CXCL2/MIP-2; assay: SPR (Biacore 3000), Evasin-3 from E. coli immobilized on CM4 chip, Kd=kd/ka
murine CXCL1/KC [21] = target: T2, murine CXCL1/KC; assay: as above
CXCL1/Gro-alpha [22] = target: T3, CXCL1/Gro-alpha; assay: as above
CXCL8/IL-8 [23] = target: T4, CXCL8/IL-8; assay: as above
CCL2/MCP-1 [24] = target: T5, CCL2/MCP-1; assay: SPR (Biacore 3000), Evasin-3 from E. coli immobilized on CM4 chip, chemokine injected
CCL18/PARC = target: T13, CCL18/PARC (UniProt P55774 21-89); assay: as above
T13 sequence: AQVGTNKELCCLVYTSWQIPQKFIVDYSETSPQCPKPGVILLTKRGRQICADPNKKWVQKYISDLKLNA

CCL4/MIP-1-beta = target: T14, CCL4/MIP-1-beta (UniProt P13236 24-92); assay: as above
T14 construct: also called MIP-1β
T14 sequence: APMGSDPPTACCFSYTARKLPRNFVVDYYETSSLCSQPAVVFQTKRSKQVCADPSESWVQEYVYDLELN

CXCL12/SDF-1-alpha [25] = target: T10, CXCL12/SDF-1-alpha; assay: as above
CCL5/RANTES = target: T15, CCL5/RANTES (UniProt P13501 24-91); assay: as above
T15 construct: also called 125I-CCL5/RANTES
T15 sequence: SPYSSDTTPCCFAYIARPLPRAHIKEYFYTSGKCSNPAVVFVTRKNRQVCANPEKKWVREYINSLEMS

CCL11/eotaxin [26] = target: T11, CCL11/eotaxin; assay: as above
CCL3/MIP-1-alpha = target: T16, CCL3/MIP-1-alpha (UniProt P10147 24-92); assay: as above
T16 construct: also called MIP-1α
T16 sequence: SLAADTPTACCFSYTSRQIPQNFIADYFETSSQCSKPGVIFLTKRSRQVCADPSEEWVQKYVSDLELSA

CX3CL1/Fractalkine [27] = target: T12, CX3CL1/Fractalkine; assay: as above

T10 sequence (P48061 22-89 limits assumed): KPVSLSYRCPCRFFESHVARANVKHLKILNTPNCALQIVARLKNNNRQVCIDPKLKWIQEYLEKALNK
T5 sequence (P13500 24-99 limits assumed): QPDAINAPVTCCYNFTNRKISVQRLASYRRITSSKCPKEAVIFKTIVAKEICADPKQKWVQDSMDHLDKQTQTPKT
T11 sequence (P51671 24-97 limits assumed): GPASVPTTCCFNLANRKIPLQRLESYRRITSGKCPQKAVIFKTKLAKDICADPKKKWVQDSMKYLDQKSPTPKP
T9 sequence (P60568 21-153 limits assumed): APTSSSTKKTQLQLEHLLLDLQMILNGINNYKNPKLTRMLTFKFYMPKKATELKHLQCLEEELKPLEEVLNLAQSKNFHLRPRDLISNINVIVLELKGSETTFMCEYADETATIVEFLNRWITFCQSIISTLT

B1: recombinant Evasin-3-6His purified from HEK293 cells (other)
chain: LVSTIESRTSGDGADNFDVVSCNKNCTSGQNECPEGCFCGLLGQNKKGHCYKIIGNLSGEPPVVRRHHHHHH
modifications: glycosylation on the S and T residues of the N-terminal sequence LVSTIESRTS (80% of the mature protein); heterogeneous post-translational modification, smear of 20-30 Kd
notes: also called Evasin-3-HIS; mature Evasin-3-HIS
Murine CXCL2/MIP-2 [1]
  Kd: 0.18 nM
Murine CXCL1/KC [2]
  Kd: 5.34 nM
CXCL1/Gro-alpha [3]
  Kd: 0.45 nM
CXCL8/IL-8 [4]
  Kd: 0.22 nM
CCL2/MCP-1 [5]
  binding result: no binding (tested: 0.23 nM 125I-labelled protein)
CTACK/CCL27
  binding result: no binding (tested: 0.23 nM 125I-labelled protein)
IL-1α
  binding result: no binding (tested: 0.23 nM 125I-labelled protein)
CXCL10/IP-10
  binding result: no binding (tested: 0.23 nM 125I-labelled protein)
IL-2
  binding result: no binding (tested: 0.23 nM 125I-labelled protein)
CXCL1/Gro-alpha [6]
  IC50 of inhibition of Gro-alpha induced chemotaxis of human neutrophils: 20 nM
CXCL8/IL-8 [7]
  IC50 of inhibition of IL-8 induced chemotaxis of human neutrophils: 16 nM
CXCL12/SDF-1-alpha [8]
  binding result: no binding (tested: 0.5 µg/ml chemokine)
CCL11/eotaxin [9]
  binding result: no binding (tested: 0.5 µg/ml chemokine)
CX3CL1/Fractalkine [10]
  binding result: no binding (tested: 0.5 µg/ml chemokine)
Murine CXCL2/MIP-2 [11]
  koff: 0.000255 s⁻¹
  kon: 1.43e+06 M⁻¹ s⁻¹
Murine CXCL1/KC [12]
  koff: 0.0012 s⁻¹
  kon: 225000 M⁻¹ s⁻¹
CXCL1/Gro-alpha [13]
  koff: 0.00117 s⁻¹
  kon: 2.6e+06 M⁻¹ s⁻¹
CXCL8/IL-8 [14]
  koff: 0.000178 s⁻¹
  kon: 826000 M⁻¹ s⁻¹
CXCL8/IL-8 [15]
  IC50: 1 nM

B2: recombinant Evasin-3 produced in E. coli (Met-Evasin-3) (other)
chain: MLVSTIESRTSGDGADNFDVVSCNKNCTSGQNECPEGCFCGLLGQNKKGHCYKIIGNLSGEPPVVRR
notes: No tag, not glycosylated; also called mature Met-Evasin-3
Murine CXCL2/MIP-2 [16]
  koff: 0.000878 s⁻¹
  kon: 1.05e+06 M⁻¹ s⁻¹
Murine CXCL1/KC [17]
  koff: 0.00235 s⁻¹
  kon: 514000 M⁻¹ s⁻¹
CXCL1/Gro-alpha [18]
  koff: 0.00269 s⁻¹
  kon: 2.23e+06 M⁻¹ s⁻¹
CXCL8/IL-8 [19]
  koff: 0.00032 s⁻¹
  kon: 603000 M⁻¹ s⁻¹
Murine CXCL2/MIP-2 [20]
  Kd: 0.84 nM
Murine CXCL1/KC [21]
  Kd: 4.56 nM
CXCL1/Gro-alpha [22]
  Kd: 1.21 nM
CXCL8/IL-8 [23]
  Kd: 0.53 nM
CXCL8/IL-8 [15]
  IC50: 20 nM
CCL2/MCP-1 [24]
  binding result: no binding (tested: 0.5 µg/ml chemokine)
CCL18/PARC
  binding result: no binding (tested: 0.5 µg/ml chemokine)
CCL4/MIP-1-beta
  binding result: no binding (tested: 0.5 µg/ml chemokine)
CXCL12/SDF-1-alpha [25]
  binding result: no binding (tested: 0.5 µg/ml chemokine)
CCL5/RANTES
  binding result: no binding (tested: 0.5 µg/ml chemokine)
CCL11/eotaxin [26]
  binding result: no binding (tested: 0.5 µg/ml chemokine)
CCL3/MIP-1-alpha
  binding result: no binding (tested: 0.5 µg/ml chemokine)
CX3CL1/Fractalkine [27]
  binding result: no binding (tested: 0.5 µg/ml chemokine)
